The text below walks through data of patent US20140037641A1.

This test addresses MAb E2-9. Nature of the test: inhibition ELISA: soluble Fba peptide against plate-coated Fba-MAP for MAb E2-9. (In general: In an ELISA, binding on a coated surface is turned into a signal by an enzyme label.)

Broadly, the IC50 is the concentration that gives 50% inhibition. A higher IC50 goes with a need for much substance. YGKDVKDLFDYAQE [Fba peptide (…), synthetic 14 mer from Candida albicans fructose-bisphosphate aldolase] came in with an IC50 of 10 mg/L.
